Marks after values point to notes of the source that are not given here.
Assay: Haematological investigations
Type: in vivo
Conditions: mice, 100 μg/mouse
Procedure: To assess the neutralising activity of Ab-IPL-IL-17™, CD-1 mice were injected i.p. with 100 μg/mouse of Ab-IPL-IL-17™, MAB421 or secukinumab as positive controls. After 30 min, an i.p. injection of 10 μg/mouse of IL-17A, IL-17F or IL-17A/F heterodimer was administered. After 2 h blood was collected by intracardiac puncture and serum levels of (A) IL-17A, (B) IL-17F or (C) IL-17A/F heterodimer were quantified by Elisa. (C-F) For the evaluation of immunogenic effects CD-1 mice were injected i.p. with 100 μg of IgG1 isotype antibody (vehicle) or IL-17 neutralising antibodies (bimekizumab, secukinumab, MAB421 or Ab-IPL-IL-17™). In the selected time-point (2 h, 24 h, 72 h, 7 days, 14 days and 21 days) total IgG, IgG1, lymphocytes and platelets levels were determined by Elisa and haematological blood count test, respectively. Data are presented as mean±S.D. for n=5 mice per group. Statistical analysis was conducted by one or two-way ANOVA followed by Bonferroni's for multiple comparisons. *P≤0.05, **P≤0.01, ***P≤0.001 vs IL-17 group; ^#P≤0.05, ^##P≤0.01, ^###P≤0.001, ^####P≤0.0001 vs vehicle group.
(§1) Standard laboratory procedures were used for blood sampling and measurements (95). Haematological investigations, for all experimental conditions, including blood count test, leukocyte, and sidereal formula were performed on citrated and not-anticoagulated blood samples, respectively. Serological tests were performed by CELL-DYN Sapphire purchased from Abbott S.R.L. (Milan, Italy). All procedures were conducted under strictly aseptic conditions.
as §1, with “measurements.” for “measurements (95).”

Substance: Bimekizumab: IL-17 neutralising antibody (reference)
- GRA (Granulocytes) (2 h): 0.24 ± 0.11 10^3/μL
- HCT (Hematocrit) (2 h): 29.96 ± 2.29%
- HGB (Hemoglobin) (2 h): 9.88 ± 1.02 g/dL
- MCH (Mean Corpuscular Hemoglobin) (2 h): 16.98 ± 1.38 pg
- MCV (Mean Cell Volume) (2 h): 61.22 ± 5.70 fL
- MHCH (2 h): 30.00 ± 3.06 g/dL
- MID (2 h): 0.36 ± 0.24 10^3/μL
- MPV (Mean Platelet Volume) (2 h): 4.64 ± 0.86 fL
- PCT (Plateletcrit) (2 h): 0.26 ± 0.07%
- PWD (Platelet Distribution Width) (2 h): 16.80 ± 1.42%
- RBC (Red Blood Cells) (2 h): 5.84 ± 1.62 10^6/μL
- RDW (Red blood cells Distribution Width) (2 h): 18.82 ± 1.75%
- WBC (White Blood Cells) (2 h): 3.90 ± 0.91 10^3/μL
- GRA (Granulocytes) (24 h): 0.22 ± 0.16 10^3/μL
- HCT (Hematocrit) (24 h): 29.56 ± 2.16%
- HGB (Hemoglobin) (24 h): 9.08 ± 1.55 g/dL
- MCH (Mean Corpuscular Hemoglobin) (24 h): 18.92 ± 1.42 pg
- MCV (Mean Cell Volume) (24 h): 62.32 ± 10.33 fL
- MHCH (24 h): 30.70 ± 3.18 g/dL
- MID (24 h): 0.42 ± 0.31 10^3/μL
- MPV (Mean Platelet Volume) (24 h): 5.00 ± 1.12 fL
- PCT (Plateletcrit) (24 h): 0.26 ± 0.06%
- PWD (Platelet Distribution Width) (24 h): 16.04 ± 1.30%
- RBC (Red Blood Cells) (24 h): 4.63 ± 0.99 10^6/μL
- RDW (Red blood cells Distribution Width) (24 h): 18.42 ± 1.18%
- WBC (White Blood Cells) (24 h): 4.60 ± 1.70 10^3/μL
- GRA (Granulocytes) (72 h): 0.30 ± 0.10 10^3/μL
- HCT (Hematocrit) (72 h): 22.04 ± 4.37** %
- HGB (Hemoglobin) (72 h): 7.10 ± 1.38* g/dL
- MCH (Mean Corpuscular Hemoglobin) (72 h): 21.46 ± 2.04* pg
- MCV (Mean Cell Volume) (72 h): 80.98 ± 9.17 fL
- MHCH (72 h): 30.62 ± 5.57 g/dL
- MID (72 h): 0.42 ± 0.22 10^3/μL
- MPV (Mean Platelet Volume) (72 h): 7.96 ± 1.95**** fL
- PCT (Plateletcrit) (72 h): 0.17 ± 0.03%
- PWD (Platelet Distribution Width) (72 h): 17.94 ± 2.99%
- RBC (Red Blood Cells) (72 h): 3.79 ± 1.02* 10^6/μL
- RDW (Red blood cells Distribution Width) (72 h): 17.12 ± 2.05%
- WBC (White Blood Cells) (72 h): 4.84 ± 2.49 10^3/μL
- GRA (Granulocytes) (7 d): 0.26 ± 0.11 10^3/μL
- HCT (Hematocrit) (7 d): 22.48 ± 3.74* %
- HGB (Hemoglobin) (7 d): 8.10 ± 1.33 g/dL
- MCH (Mean Corpuscular Hemoglobin) (7 d): 21.22 ± 3.74 pg
- MCV (Mean Cell Volume) (7 d): 72.78 ± 8.77 fL
- MHCH (7 d): 29.36 ± 5.05 g/dL
- MID (7 d): 0.46 ± 0.18 10^3/μL
- MPV (Mean Platelet Volume) (7 d): 6.78 ± 1.09* fL
- PCT (Plateletcrit) (7 d): 0.22 ± 0.07%
- PWD (Platelet Distribution Width) (7 d): 16.04 ± 2.71%
- RBC (Red Blood Cells) (7 d): 4.18 ± 0.93 10^6/μL
- RDW (Red blood cells Distribution Width) (7 d): 18.14 ± 3.00%
- WBC (White Blood Cells) (7 d): 5.08 ± 1.37 10^3/μL
- GRA (Granulocytes) (14 d): 0.20 ± 0.12 10^3/μL
- HCT (Hematocrit) (14 d): 28.36 ± 3.19%
- HGB (Hemoglobin) (14 d): 9.06 ± 1.84 g/dL
- MCH (Mean Corpuscular Hemoglobin) (14 d): 17.48 ± 1.38 pg
- MCV (Mean Cell Volume) (14 d): 61.10 ± 9.83 fL
- MHCH (14 d): 29.96 ± 4.45 g/dL
- MID (14 d): 0.40 ± 0.10 10^3/μL
- MPV (Mean Platelet Volume) (14 d): 5.66 ± 0.92 fL
- PCT (Plateletcrit) (14 d): 0.26 ± 0.05%
- PWD (Platelet Distribution Width) (14 d): 16.02 ± 1.63%
- RBC (Red Blood Cells) (14 d): 5.81 ± 1.41 10^6/μL
- RDW (Red blood cells Distribution Width) (14 d): 18.26 ± 2.28%
- WBC (White Blood Cells) (14 d): 3.00 ± 0.68 10^3/μL
- GRA (Granulocytes) (21 d): 0.22 ± 0.13 10^3/μL
- HCT (Hematocrit) (21 d): 29.20 ± 2.70%
- HGB (Hemoglobin) (21 d): 10.06 ± 1.27 g/dL
- MCH (Mean Corpuscular Hemoglobin) (21 d): 17.96 ± 1.57 pg
- MCV (Mean Cell Volume) (21 d): 62.92 ± 6.53 fL
- MHCH (21 d): 30.50 ± 4.52 g/dL
- MID (21 d): 0.32 ± 0.16 10^3/μL
- MPV (Mean Platelet Volume) (21 d): 5.02 ± 0.76 fL
- PCT (Plateletcrit) (21 d): 0.28 ± 0.03%
- PWD (Platelet Distribution Width) (21 d): 16.24 ± 1.83%
- RBC (Red Blood Cells) (21 d): 6.37 ± 1.11 10^6/μL
- RDW (Red blood cells Distribution Width) (21 d): 18.02 ± 1.34%
- WBC (White Blood Cells) (21 d): 3.32 ± 1.18 10^3/μL
